Test results published in PMC4287557.

Experiments:
[1] = biological target: 16055 SOSIP trimer (HIV-1 subtype C, truncated at residue 663), negatively selected (HIV-1 subtype C strain 16055); experiment: negative-stain EM; negatively selected SOSIP trimers incubated with a ten molar excess of Fab or four-domain sCD4 at RT for 1 hour; 2% uranyl formate; 2D class averages (occupancy) and 3D reconstructions
[2] = biological target: JRFL SOSIP trimer (HIV-1 subtype B, truncated at residue 663), negatively selected (HIV-1 subtype B strain JRFL); experiment: as above
[3] = biological target: JRFL SOSIP trimer (HIV-1 subtype B, truncated at residue 663), negatively selected (HIV-1 subtype B strain JRFL)

PGT151 Fab, sequence (VH): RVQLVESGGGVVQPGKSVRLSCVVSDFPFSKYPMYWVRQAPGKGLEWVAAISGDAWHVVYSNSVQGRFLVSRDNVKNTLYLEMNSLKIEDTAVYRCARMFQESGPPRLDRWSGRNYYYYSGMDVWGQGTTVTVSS
PGT151 Fab, sequence (VL): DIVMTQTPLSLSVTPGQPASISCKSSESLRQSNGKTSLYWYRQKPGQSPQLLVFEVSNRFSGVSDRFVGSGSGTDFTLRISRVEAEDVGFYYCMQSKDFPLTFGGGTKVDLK

## PGT151 Fab
[1]
  percent of trimers with one Fab bound: 34%
  percent of trimers with three Fabs bound: 0%
  percent of trimers with two Fabs bound: 20%
[2]
  percent of trimers with one Fab bound: 28%
  percent of trimers with three Fabs bound: 11%
  percent of trimers with two Fabs bound: 36%
[3]
  increase of the melting temperature (Tm) of the JRFL SOSIP-Fab complex over the trimer alone, DSF: 2.1 °C
